# Laboratory results taken from the supplement of paper PMC10567573.
# B1: TRIB1 (parent)
# chain: SYVRSRKRLREEEAARLFKQIVSA
# Variants of: B1
# Assay: protein stability index of a GFP-peptide fusion (GPS, HEK-293T) (PSI 1-6); higher = more stable
# Conditions: c terminus: a fixed tail appended
# 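Also: lentivirally expressed fusions sorted by FACS into six bins by GFP to DsRed ratio, PSI derived from sequencing read proportions per bin multiplied by bin number.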
row,Variant,protein stability index
1,SYVRSRKSLREEEAARLFKQIVSA,1.99
2,SYVRSRKWLREEEAARLFKQIVSA,1.95
3,SYVRSRKNLREEEAARLFKQIVSA,2.6
4,SYVRSRKHLREEEAARLFKQIVSA,1.96
5,SYVRSRKDLREEEAARLFKQIVSA,1.78
6,SYVRSRKYLREEEAARLFKQIVSA,1.99
7,SYVRSRKVLREEEAARLFKQIVSA,2.37
8,SYVRSRKQLREEEAARLFKQIVSA,2.38
9,SYVRSRKILREEEAARLFKQIVSA,2.3
10,SYVRSRKFLREEEAARLFKQIVSA,1.48
11,SYVRSRKLLREEEAARLFKQIVSA,2.03
12,SYVRSRKMLREEEAARLFKQIVSA,1.58
13,SYVRSRKCLREEEAARLFKQIVSA,2.05
14,SYVRSRKPLREEEAARLFKQIVSA,2.09
15,SYVRSRKELREEEAARLFKQIVSA,3.2
16,SYVRSRKALREEEAARLFKQIVSA,2.3
17,SYVRSRKKLREEEAARLFKQIVSA,2.49
18,SYVRSRKRLREEEACRLFKQIVSA,1.93
19,SYVRSRKRLREEEADRLFKQIVSA,2.32
20,SYVRYRKRLREEEAARLFKQIVSA,2.65
21,SYVRFRKRLREEEAARLFKQIVSA,2.4
22,SYVRPRKRLREEEAARLFKQIVSA,2.27
23,SYVRMRKRLREEEAARLFKQIVSA,1.92
24,SYVRCRKRLREEEAARLFKQIVSA,1.62

row,Variant,protein stability index
1,SYVRLRKRLREEEAARLFKQIVSA,2.5
2,SYVRNRKRLREEEAARLFKQIVSA,2.12
3,SYVRARKRLREEEAARLFKQIVSA,1.76
4,SYVRIRKRLREEEAARLFKQIVSA,1.73
5,SYVRTRKRLREEEAARLFKQIVSA,2.21
6,SYVRGRKRLREEEAARLFKQIVSA,3.13
7,SYVRERKRLREEEAARLFKQIVSA,1.39
8,SYVRHRKRLREEEAARLFKQIVSA,1.94
9,SYVRDRKRLREEEAARLFKQIVSA,2.24
10,SYVRKRKRLREEEAARLFKQIVSA,2.31
11,SYVVSRKRLREEEAARLFKQIVSA,2.28
12,SYVPSRKRLREEEAARLFKQIVSA,1.77
13,SYVDSRKRLREEEAARLFKQIVSA,2.44
14,SYVISRKRLREEEAARLFKQIVSA,1.57
15,SYVYSRKRLREEEAARLFKQIVSA,2.11
16,SYVWSRKRLREEEAARLFKQIVSA,1.29
17,SYVNSRKRLREEEAARLFKQIVSA,2.76
18,SYVQSRKRLREEEAARLFKQIVSA,2.09
19,SYVCSRKRLREEEAARLFKQIVSA,1.7
20,SYVHSRKRLREEEAARLFKQIVSA,2.56
21,SYVMSRKRLREEEAARLFKQIVSA,2.12
22,SYVFSRKRLREEEAARLFKQIVSA,1.22
23,SYVSSRKRLREEEAARLFKQIVSA,1.87
24,SYVLSRKRLREEEAARLFKQIVSA,2.35

row,Variant,protein stability index
1,SYVTSRKRLREEEAARLFKQIVSA,1.8
2,SYVESRKRLREEEAARLFKQIVSA,2.76
3,SYVRSRKRRREEEAARLFKQIVSA,2.07
4,SYVRSRKRPREEEAARLFKQIVSA,1.86
5,SYVRSRKRKREEEAARLFKQIVSA,2.25
6,SYVRSRKRTREEEAARLFKQIVSA,2.24
7,SYVRSRKRWREEEAARLFKQIVSA,2.56
8,SYVRSRKRMREEEAARLFKQIVSA,3.22
9,SYVRSRKRQREEEAARLFKQIVSA,2.3
10,SYVRSRKRCREEEAARLFKQIVSA,1.5
11,SYVRSRKRYREEEAARLFKQIVSA,2
12,SYVRSRKRSREEEAARLFKQIVSA,2.44
13,SYVRSRKRVREEEAARLFKQIVSA,1.75
14,SYVRSRKRDREEEAARLFKQIVSA,2.47
15,SYVRSRKRHREEEAARLFKQIVSA,2.24
16,SYVRSRKRFREEEAARLFKQIVSA,1.68
17,SYVRSRKRIREEEAARLFKQIVSA,3.23
18,SYVRSRKRAREEEAARLFKQIVSA,1.91
19,SYVRSRKRLREEEDARLFKQIVSA,1.59
20,SYVRSRKRLREEERARLFKQIVSA,3.17
21,SYVRSRKRLREEEFARLFKQIVSA,2.34
22,SYVRSRKRLREEETARLFKQIVSA,2.83
23,SYVRSRKRLREEEHARLFKQIVSA,2.26
24,SYVRSRKRLREEEIARLFKQIVSA,2.4

row,Variant,protein stability index
1,SYVRSRKRLREEEPARLFKQIVSA,2.56
2,SYVRSRKRLREEESARLFKQIVSA,3.24
3,SYVRSRKRLREEEWARLFKQIVSA,2.11
4,SYVRSRKRLREEEGARLFKQIVSA,3.38
5,SYVRSRKRLREEENARLFKQIVSA,1.89
6,SYVRSRKRLREEEVARLFKQIVSA,2.09
7,SYVRSRKRLREEELARLFKQIVSA,2.03
8,SYVRSRKRLREEEQARLFKQIVSA,2.99
9,SYVRSRKRLREEEMARLFKQIVSA,1.81
10,SYVRSRKRLREEEYARLFKQIVSA,2.18
11,SYVRSRKRLREEEKARLFKQIVSA,2.64
12,SYVRSRKRLREEECARLFKQIVSA,2.24
13,SYVRSRKRLREEEEARLFKQIVSA,2.85
14,SYVRSRKRLTEEEAARLFKQIVSA,2.67
15,SYVRSRKRLGEEEAARLFKQIVSA,3.19
16,SYVRSRKRLHEEEAARLFKQIVSA,2.63
17,SYVRSRKRLIEEEAARLFKQIVSA,1.83
18,SYVRSRKRLNEEEAARLFKQIVSA,2.54
19,SYVRSRKRLPEEEAARLFKQIVSA,2.28
20,SYVRSRKRLKEEEAARLFKQIVSA,3.08
21,SYVRSRKRLQEEEAARLFKQIVSA,2.22
22,SYVRSRKRLVEEEAARLFKQIVSA,1.69
